From patent publication US20260000752A1 (AKSTON BIOSCIENCES, published 2026) come the findings set out here.

The experiment deals with SARS-CoV-2-RBD-hIgG-Fc fusion protein of SEQ ID NO: 19.

One may read the EC50 as the concentration that produces a half-maximal response. A low value points to higher potency in that assay.

B1: recombinant human Fc(gamma)RIIa, biotinylated (R&D Systems) (receptor)
chain: AAPPKAVLKLEPPWINVLQEDSVTLTCQGARSPESDSIQWFHNGNLIPTHTQPSYRFKANNNDSGEYTCQTGQTSLSDPVHLTVLSEWLVLQTPHLEFQEGETIMLRCHSWKDKPLVKVTFFQNGKSQKFSHLDPTFSIPQANHSHSGDYHCTGNIGYTLFSSKPVTITVQVPSMGSSSPMGI
As to B1, a half-maximal effect (EC50) was put at 2.28 µg/mL.

B2: recombinant human Fc(gamma)RIIb, biotinylated (R&D Systems) (receptor)
chain: APPKAVLKLEPQWINVLQEDSVTLTCRGTHSPESDSIQWFHNGNLIPTHTQPSYRFKANNNDSGEYTCQTGQTSLSDPVHLTVLSEWLVLQTPHLEFQEGETIVLRCHSWKDKPLVKVTFFQNGKSKKFSRSDPNFSIPQANHSHSGDYHCTGNIGYTLYSSKPVTITVQAP
The molecule B2 displayed an EC50 of 2.05 µg/mL.

B3: recombinant human Fc(gamma)RI, biotinylated (R&D Systems) (receptor, UniProt P12314 16-288, looked up)
chain: QVDTTKAVITLQPPWVSVFQEETVTLHCEVLHLPGSSSTQWFLNGTATQTSTPSYRITSASVNDSGEYRCQRGLSGRSDPIQLEIHRGWLLLQVSSRVFTEGEPLALRCHAWKDKLVYNVLYYRNGKAFKFFHWNSNLTILKTNISHNGTYHCSGMGKHRYTSAGISVTVKELFPAPVLNASVTSPLLEGNLVTLSCETKLLLQRPGLQLYFSFYMGSKTLRGRNTSSEYQILTARREDSGLYWCEAATEDGNVLKRSPELELQVLGLQLPTP
As to B3, the EC50 turned out to be 0.0339 µg/mL. Compared with the last molecule, the EC50 is about 60-fold lower.

B4: human Fc(gamma)RIIIb (receptor)
chain: GMRTEDLPKAVVFLEPQWYSVLEKDSVTLKCQGAYSPEDNSTQWFHNENLISSQASSYFIDAATVNDSGEYRCQTNLSTLSDPVQLEVHIGWLLLQAPRWVFKEEDPIHLRCHSWKNTALHKVTYLQNGKDRKYFHHNSDFHIPKATLKDSGSYFCRGLVGSKNVSSETVNITITQGLAVSTIS
Turning to B4, the response was half-maximal at 11.7 µg/mL (EC50).
